Test results: the supplement of paper PMC10567573

B1: MMP1 (parent)
chain: FHGTRQYKFDPKTKRILTLQKANS
B2: SPACA3 (parent)
chain: FTSGFNAAALDYEADGSTNNGIFQ

Variants of: B1
Experiment: protein stability index of a GFP-peptide fusion (GPS, HEK-293T) (PSI 1-6); higher = more stable
Settings: c terminus: a fixed tail appended
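Further: lentivirally expressed fusions sorted by FACS into six bins by GFP to DsRed ratio, PSI derived from sequencing read proportions per bin multiplied by bin number.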

Protein stability index, by site and new letter:
R5: S 1.72; H 2.07; D 2.38; Q 1.83; L 2.2; C 1.79; E 2.02; G 1.88; N 1.98; W 2.45; I 2.21
P11: E 1.67; T 2.43; W 2.19; V 1.8; M 1.83; D 2.01; I 2.57; G 1.66; L 1.52; K 1.83; F 1.07; Y 2.13; C 1.79; A 2.31; N 1.93
L19: F 1.68; S 2.03; P 1.87; W 2.61; N 1.94; Y 2.34; A 1.54; H 1.59; T 2.2; M 1.91; D 2.49
Q6: A 2.15; G 1.61; K 1.92; H 4.5; N 1.92; C 1.9; S 1.67; L 1.83; R 1.5; P 1.46; V 2.96; E 2.12; T 1.6
K12: T 1.73; R 2.44; I 1.95; Q 2.04; H 2.21; G 1.47; L 1.91; W 3.25; V 1.55; A 1.87; C 1.86; P 2.26; N 2.12
K14: C 2.18; Y 1.36; G 1.54; E 1.85; I 1.92; D 2.19; Q 1.82; T 1.61; W 1.95; H 1.54; R 1.85
H2: S 2.39; P 1.68; N 2.33; T 2.04; D 3.55; C 1.88; M 2.53; R 3.04; W 2.29; E 3.03
L17: R 2.56; K 2.1; H 2.17; W 1.88; G 2.38; I 1.78; A 1.92; D 1.91; P 1.57
A22: T 1.68; I 1.38; W 1.6; C 2.07; G 1.73; Y 2.49; P 2.19; V 1.45; D 1.48; M 1.83; E 2.92; K 1.99; Q 2.06; S 2.51
S24: H 2.58; Y 1.67; E 1.79; Q 2.07; F 1.59; M 1.85; N 2.16; G 2.03; I 2.09; L 1.76; T 1.65; A 1.6
T4: G 1.78; S 2.08; Q 2.95; P 1.61; F 3.12; W 3.19; C 1.6; Y 2.98; D 2.43; H 1.68; I 2.13; M 1.8
K21: E 2.86; N 2.27; P 2.04; L 1.32; H 2.33; T 1.54; C 2.53; R 1.82; S 1.81; G 1.11; Y 2.43
F9: M 1.67; T 1.55; E 1.76; S 2.08; G 2.24; A 1.74; P 2.13; I 1.68; V 1.58; N 2.39
T18: H 1.39; A 2.05; N 2.15; D 3.38; L 1.58; F 1.67; S 1.9; P 2.18; M 1.74; Q 1.73; V 1.04; G 1.86; I 1.61; W 2.4; C 1.55
D10: G 2.15; A 1.88; V 1.42; S 2.36; N 1.22; L 1.5; M 2.18; H 1.95; Q 2.46; F 2.45; E 1.7; I 2.14; R 1.62; P 1.72
T13: C 2.66; H 2.21; A 2.3; W 2.07; K 2; P 1.8; L 2.09; E 1.69; V 1.6; Y 1.65; M 1.67
Y7: C 1.97; M 1.72; F 1.75; H 2.18; E 2.5; V 2.27; A 2.31; S 2.74; L 2.57; Q 2.45
G3: W 2.02; Y 1.96; I 1.78; N 2.77; F 1.58; Q 1.67; C 2.63; T 2.1; P 2.68; M 1.78; D 2.29; A 2.02
I16: L 2.21; F 1.64; N 1.84; S 1.7; D 2.5; Q 1.94; K 1.67; A 2.8; W 1.95; Y 1.35
R15: S 1.91; M 1.47; Q 2.16; C 1.28; K 1.66; P 2.29; G 1.31; L 2.2; W 1.69; H 1.86; T 1.83; I 2.05
N23: R 2.38; V 2.08; H 1.88; G 1.39; L 2.08; M 1.8; K 3.21; P 1.67; D 2.46; E 1.91; A 1.37
Q20: V 1.75; W 2.77; P 2.06; C 2.16; R 2.37; N 1.73; I 1.78; L 2.12; K 1.84; M 1.45; S 2.28
K8: W 3.37; T 2.5; L 1.64; C 2.73; V 1.74; S 2.52; R 2.65; I 2.49; M 2.63; A 2.04; F 2.76; P 1.71
F1: E 3.91; C 2.95; Y 2.51; Q 3.32; I 3.12; T 3.4; D 3.65

Variants of: B2
Experiment: as above
Settings: c terminus: a fixed tail appended

Protein stability index, by site and new letter:
I22: H 1.95; G 2.25; C 1.74; Q 2.13
D11: H 2.04; M 1.98; T 2; E 1.79
G21: W 1.58; D 1.9; K 2.33
N6: Q 1.94; I 1.43
S3: I 1.76
Y12: D 2.3; T 2.41
F23: Y 1.98; M 2.55
T2: Q 2.26
E13: M 1.82; R 1.66; F 2.46; S 1.78
S17: N 2.21; H 2.31
Q24: A 1.47; R 2.2; I 2.18; Y 1.74
L10: I 1.98
A7: M 2.14; D 2.62; Y 2.31; G 2.13
A8: Y 1.89; D 2.98
G4: F 2.13
N19: F 2.24; D 2.38
D15: L 1.58
A14: P 2; E 2.14; F 2.11; D 2.13
F5: P 3.81
A9: R 1.99; P 1.86
G16: N 2.33
F1: T 4.63; C 3.44; M 3.99; S 4.64
N20: H 1.75; L 2.04; I 1.9; P 2.28
T18: N 1.7
